Results on one substance are retold here after paper PMC2908990.

pKd: −log10 of the molar value.

For the test, the target named is CH1 domain of the murine IgG1 heavy chain, oxidized (internal disulfide bridge formed) (murine) [IgG part: P01868]. The test can be described thus: other fluorescence titration.

As to “CL domain of the murine MAK33 κ light chain (from UniProt P01837 1-107) (domain or fragment)”, the pKd was 5.21.
